Data on eleven molecules can be found in patent publication US20110294982A1 (Ablynx, published 2011).

Residue numbers refer to the chain shown, from its start.

The labels stand for the following.
B1: VHH-H6 (VHH)
VHH: QVQLQDSGGGLVQAGGSLRLSCEASGRTFSSYAMGWFRQPPGKEREWVSTISRSGSAIYAYPVKGRFTMSRDNAKNTVYLEMNSLKPEDTAVFYCAAARSGVPSSRPTDYDYWGQGTQVTVSS
notes: Used with a Myc tag (captured/detected with anti-Myc 9E10) and a C-terminal His6 tag (detected with anti-HIS6 (C-term)); also called H6-VHH
B2: 140-A10 (VHH)
VHH: EVQLVESGGGLVQPGGSLRLSCAASGFTFSRMAMGWYRQAPGVERDFLAIISPGGGTNYADSVKGRFTISRDNAKNTVYLQMNSLKPEDTAVYYCNARNFEGRRVDYWGQGTQVTVSS
B3: 140-D4 (VHH)
VHH: EVQLVESGGGLVEAGGSLRLSCATSGSTFGIEAMAWYRQAPGKQRELVATINSASRTNYADSVKGRFTISRDTGKSILYLQMNNLEPEDTAVYYCKITTPLPYRRDFWGQGTQVTVSS
B4: 140-A2 (VHH)
VHH: EVQLVESGGGLVQAGGSLRLSCAASGSTYRLNNMAWYRQSPGKKRELVALISGITSDPSTYYLDSVRGRFSISRDNALNTVYLQMNSLKPEDTAVYYCKQAWAGVEYWGQGTQVTVSS
B5: 140-F10 (VHH)
VHH: EVQLVESGGGSVQAGGSLRLSCAASQRTFSSDVMGWFRQAPGKERDFVAYIHRSGTTYYADSVKGRLTISRDNAKSTVYLQMNSLKPEDTAVYHCAAGRYGSTSDTLYDYWGQGTQVTVSS
B6: 140-B8 (VHH)
VHH: B5 VHH with S31R, I51S, L67F
B7: 140-A5 (VHH)
VHH: EVQLVESGGGSVQAGGSLRLSCAASGTTATITVPGWYRQAPGKQRELVAVINSGGTKKYADSVKGRFTISIDNVKRTLYLEMNSLRPEDTAVYYCSTLKYWGQGTQVTVSS
B8: 140-G8 (VHH)
VHH: EVQLVESGGGSVQAGGSLRLSCTASGSIFSINDMGWYRQPPGEQRELVATLTSSDSTKYADSVKSRFTISRDNAKNTVYLQMNSLKPEDTAVYYCNAVINRRGDGRNWSREYWGQGTQVTVSS
B9: 140-E10 (VHH)
VHH: EVQLVESGGGLVQAGESLKLSCVASGNILRVTSMGWGRQIPGKQRKLVAWITNEGRTEYADSVKGRFTISRDNAQNTLYLLMNSLKPEDTAVYYCYGFSPRESSGNTYWGQGTQVTVSS
B10: 140-H10 (VHH)
VHH: EVPLVESGGGSVQAGGSLRLSCAASQRTFSRDVTGWFRQAPGKERDFVAYIHRSGETTYYADSVKGRFTISRDNAKSTVYLQMNSLKPEDTAVYHCAAGRYGSTSDTLYDYWGQGTQVTVSS
B11: 140-H8 (VHH)
VHH: EVQLVESGGGLVQAGGSLRLSCAASISANAIDVVSWYRQAPGKPRELAASITSAGRIKYAESVKGRFGISRDNAKNTVSLQMNSLKPEDTAVYYCNALYRNAIYWGQGTQVTVSS

The target of the first assay is T1, recombinant VLA-5 (α5β1 integrin) (UniProt P08648 42-995; P05556 21-728, limits assumed).
T1 construct: also called α5β1 (VLA-5) integrin; a5β1 integrin
T1 sequence (P08648 42-995 limits assumed, chain 1 of 2): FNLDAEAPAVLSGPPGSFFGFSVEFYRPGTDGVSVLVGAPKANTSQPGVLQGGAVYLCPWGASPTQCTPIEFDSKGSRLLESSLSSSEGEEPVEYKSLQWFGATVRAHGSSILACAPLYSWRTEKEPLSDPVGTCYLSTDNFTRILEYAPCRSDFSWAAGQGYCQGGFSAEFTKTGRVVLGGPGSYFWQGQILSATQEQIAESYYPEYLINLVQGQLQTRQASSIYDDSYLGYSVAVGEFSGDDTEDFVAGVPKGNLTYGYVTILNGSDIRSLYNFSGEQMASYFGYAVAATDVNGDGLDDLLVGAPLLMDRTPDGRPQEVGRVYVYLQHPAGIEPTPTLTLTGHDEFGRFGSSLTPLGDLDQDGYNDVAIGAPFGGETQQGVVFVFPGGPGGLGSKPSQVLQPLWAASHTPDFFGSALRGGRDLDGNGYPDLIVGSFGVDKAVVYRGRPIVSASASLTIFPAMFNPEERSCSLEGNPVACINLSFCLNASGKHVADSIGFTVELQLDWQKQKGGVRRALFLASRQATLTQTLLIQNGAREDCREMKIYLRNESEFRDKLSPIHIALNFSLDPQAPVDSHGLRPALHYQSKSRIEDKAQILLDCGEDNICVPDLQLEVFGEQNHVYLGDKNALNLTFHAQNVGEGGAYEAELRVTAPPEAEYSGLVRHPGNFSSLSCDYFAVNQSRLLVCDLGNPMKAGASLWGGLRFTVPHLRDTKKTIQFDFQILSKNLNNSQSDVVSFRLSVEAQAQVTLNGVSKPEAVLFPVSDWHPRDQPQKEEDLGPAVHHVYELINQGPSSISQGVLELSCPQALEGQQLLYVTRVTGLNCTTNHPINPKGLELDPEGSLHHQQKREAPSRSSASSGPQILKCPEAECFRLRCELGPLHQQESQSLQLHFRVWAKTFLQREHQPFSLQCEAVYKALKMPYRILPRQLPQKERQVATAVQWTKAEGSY
T1 sequence (P05556 21-728 limits assumed, chain 2 of 2): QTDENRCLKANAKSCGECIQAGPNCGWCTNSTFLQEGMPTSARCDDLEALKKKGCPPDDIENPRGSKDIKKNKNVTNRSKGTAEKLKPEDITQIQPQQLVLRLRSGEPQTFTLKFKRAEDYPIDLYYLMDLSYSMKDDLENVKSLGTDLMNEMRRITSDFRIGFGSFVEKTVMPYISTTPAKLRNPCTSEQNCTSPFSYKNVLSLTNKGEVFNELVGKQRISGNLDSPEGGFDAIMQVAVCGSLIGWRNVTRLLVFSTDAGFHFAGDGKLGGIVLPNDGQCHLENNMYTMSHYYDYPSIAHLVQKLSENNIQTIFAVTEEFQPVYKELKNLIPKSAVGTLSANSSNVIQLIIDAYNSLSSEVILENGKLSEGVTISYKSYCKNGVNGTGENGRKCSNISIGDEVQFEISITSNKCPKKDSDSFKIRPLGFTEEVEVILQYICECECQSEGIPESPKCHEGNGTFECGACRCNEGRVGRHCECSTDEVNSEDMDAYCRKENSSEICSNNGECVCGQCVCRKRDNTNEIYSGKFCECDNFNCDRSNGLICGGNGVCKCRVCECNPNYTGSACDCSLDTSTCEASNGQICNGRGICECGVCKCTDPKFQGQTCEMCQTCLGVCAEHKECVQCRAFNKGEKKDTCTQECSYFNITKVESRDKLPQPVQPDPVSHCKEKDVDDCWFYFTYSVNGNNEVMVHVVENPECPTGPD
The assay can be described thus: ELISA, integrin coated at 0.5 µg/well. The protocol: FIG. 3: Direct binding of VHH-H6 to recombinant α3β1 integrin. Recombinant VLA-3 (α3β1 integrin) or recombinant VLA-5 (a5β1 integrin) were coated into Maxisorb plates at 0.5 μg/well, and binding with VHH-H6 or no VHH (in which anti-Myc was used) was assayed in ELISA. Binding of the VHHs to the integrins is expressed as absorbance at 450 nm. Data represents the mean±standard deviation of three independent experiments
(In an ELISA, binding on a coated surface is turned into a signal by an enzyme label.)
As for B1, the binding result is “no binding”.

In the next assay the target is T2, recombinant human alphavbeta6 (human, UniProt P06756 31-992; P18564 22-707, limits assumed).
T2 construct: Bought, carrier free (R&D Systems 3817-AV/CF); also called aVb6
T2 sequence (P06756 31-992 limits assumed, chain 1 of 2): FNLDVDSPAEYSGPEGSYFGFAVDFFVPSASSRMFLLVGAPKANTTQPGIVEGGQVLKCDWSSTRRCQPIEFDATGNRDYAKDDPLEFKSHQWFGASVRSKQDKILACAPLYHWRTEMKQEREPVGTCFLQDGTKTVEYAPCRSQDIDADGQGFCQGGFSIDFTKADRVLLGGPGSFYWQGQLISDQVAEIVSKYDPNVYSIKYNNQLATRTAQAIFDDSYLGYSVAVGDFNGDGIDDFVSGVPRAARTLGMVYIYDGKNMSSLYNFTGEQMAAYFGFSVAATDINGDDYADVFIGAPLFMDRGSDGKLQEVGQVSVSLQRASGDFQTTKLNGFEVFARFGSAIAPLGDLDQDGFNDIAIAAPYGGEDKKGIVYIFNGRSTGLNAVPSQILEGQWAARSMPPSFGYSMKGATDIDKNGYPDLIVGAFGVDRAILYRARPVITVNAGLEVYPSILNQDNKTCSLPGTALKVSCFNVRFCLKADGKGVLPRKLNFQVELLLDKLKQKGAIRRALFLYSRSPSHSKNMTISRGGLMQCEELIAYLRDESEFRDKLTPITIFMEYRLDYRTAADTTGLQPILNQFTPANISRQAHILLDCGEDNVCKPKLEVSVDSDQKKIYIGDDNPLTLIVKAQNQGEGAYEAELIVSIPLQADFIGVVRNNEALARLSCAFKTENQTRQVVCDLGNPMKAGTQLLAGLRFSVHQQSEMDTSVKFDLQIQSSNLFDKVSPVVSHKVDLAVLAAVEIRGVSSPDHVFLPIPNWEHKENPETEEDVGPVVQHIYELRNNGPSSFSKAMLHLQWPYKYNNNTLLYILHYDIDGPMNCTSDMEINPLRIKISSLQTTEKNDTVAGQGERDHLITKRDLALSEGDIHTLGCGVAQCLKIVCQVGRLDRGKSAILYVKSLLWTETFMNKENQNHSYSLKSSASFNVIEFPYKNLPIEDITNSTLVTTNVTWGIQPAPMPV
T2 sequence (P18564 22-707 limits assumed, chain 2 of 2): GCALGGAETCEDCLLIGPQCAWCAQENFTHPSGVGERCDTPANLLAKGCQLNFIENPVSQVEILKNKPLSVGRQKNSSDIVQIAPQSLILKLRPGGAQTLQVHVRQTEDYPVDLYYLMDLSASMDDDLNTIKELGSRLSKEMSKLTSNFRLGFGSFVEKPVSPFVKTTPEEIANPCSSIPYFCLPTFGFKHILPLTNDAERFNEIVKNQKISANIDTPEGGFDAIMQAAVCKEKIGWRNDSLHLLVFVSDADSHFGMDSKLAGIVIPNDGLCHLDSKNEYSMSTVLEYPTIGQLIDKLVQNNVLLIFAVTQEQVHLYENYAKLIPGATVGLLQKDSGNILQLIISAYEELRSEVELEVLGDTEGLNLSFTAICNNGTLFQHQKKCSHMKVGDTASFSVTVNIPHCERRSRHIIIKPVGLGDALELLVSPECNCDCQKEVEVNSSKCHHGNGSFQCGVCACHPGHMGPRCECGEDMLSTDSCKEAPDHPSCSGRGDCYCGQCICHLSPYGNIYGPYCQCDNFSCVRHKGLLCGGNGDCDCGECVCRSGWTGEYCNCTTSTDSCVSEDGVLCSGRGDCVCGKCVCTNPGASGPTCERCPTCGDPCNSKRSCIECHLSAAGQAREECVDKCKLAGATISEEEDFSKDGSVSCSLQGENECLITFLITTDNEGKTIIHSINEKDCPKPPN
As to the kind of experiment: specificity ELISA on coated integrins, periplasmic extract.
In the case of B2, the binding result was “binds”.

In the case of B3, the binding result is “binds”.

Turning to B4, the binding result was “binds”.

As for B5, the binding result is listed as “binds”.

In the case of B6, the binding result is “binds”.

Turning to B7, the binding result is “binds”.

On to B8, for which the binding result was “binds”.

Take B9: the binding result is recorded as “binds”.

For the molecule B10, the binding result is “binds”.

For the molecule B11, the binding result is reported as “binds”.
